Measurements taken from patent publication US7314753.

Key:
[1] = molecular target: CEA (carcino-embryonic antigen) (UniProt P06731); test: enzyme activity specificity test, CEA-coated plate; pH 5.0 eluate 1:3, dilution 1:8
[2] = molecular target: CEA (carcino-embryonic antigen) (UniProt P06731); test: enzyme activity specificity test, CEA-coated plate; disrupted cell suspension 1:3, dilution 1:8
[3] = molecular target: CEA (carcino-embryonic antigen) (UniProt P06731); test: enzyme activity specificity test, CEA-coated plate; pH 5.0 eluate ultrafiltrate 1:1, dilution 1:2
[4] = molecular target: CEA (carcino-embryonic antigen) (UniProt P06731); test: enzyme activity specificity test, CEA-coated plate; pH 5.0 eluate ultraconcentrate 1:10, dilution 1:128
[5] = molecular target: CEA (carcino-embryonic antigen) (UniProt P06731); test: enzyme activity specificity test, CEA-coated plate; pH 5.0 eluate 1:3, dilution 1:2
[6] = molecular target: CEA (carcino-embryonic antigen) (UniProt P06731); test: enzyme activity specificity test, CEA-coated plate; pH 5.0 eluate 1:3, dilution 1:128
[7] = molecular target: CEA (carcino-embryonic antigen) (UniProt P06731); test: enzyme activity specificity test, CEA-coated plate; disrupted cell suspension 1:3, dilution 1:256
[8] = molecular target: CEA (carcino-embryonic antigen) (UniProt P06731); test: enzyme activity specificity test, CEA-coated plate; pH 5.0 eluate ultraconcentrate 1:10, dilution 1:2
[9] = molecular target: CEA (carcino-embryonic antigen) (UniProt P06731); test: enzyme activity specificity test, CEA-coated plate; pH 5.0 eluate ultrafiltrate 1:1, dilution 1:16
[10] = molecular target: CEA (carcino-embryonic antigen) (UniProt P06731); test: enzyme activity specificity test, CEA-coated plate; void volume of affinity column 1:1, dilution 1:2
[11] = molecular target: CEA (carcino-embryonic antigen) (UniProt P06731); test: enzyme activity specificity test, CEA-coated plate; disrupted cell suspension 1:3, dilution 1:128
[12] = molecular target: CEA (carcino-embryonic antigen) (UniProt P06731); test: enzyme activity specificity test, CEA-coated plate; void volume of affinity column 1:1, dilution 1:256
[13] = molecular target: CEA (carcino-embryonic antigen) (UniProt P06731); test: enzyme activity specificity test, CEA-coated plate; pH 5.0 eluate 1:3, dilution 1:4
[14] = molecular target: CEA (carcino-embryonic antigen) (UniProt P06731); test: enzyme activity specificity test, CEA-coated plate; disrupted cell suspension 1:3, dilution 1:16
[15] = molecular target: CEA (carcino-embryonic antigen) (UniProt P06731); test: enzyme activity specificity test, CEA-coated plate; pH 5.0 eluate 1:3, dilution 1:32
[16] = molecular target: CEA (carcino-embryonic antigen) (UniProt P06731); test: enzyme activity specificity test, CEA-coated plate; void volume of affinity column 1:1, dilution 1:4
[17] = molecular target: CEA (carcino-embryonic antigen) (UniProt P06731); test: enzyme activity specificity test, CEA-coated plate; pH 5.0 eluate ultrafiltrate 1:1, dilution 1:64
[18] = molecular target: CEA (carcino-embryonic antigen) (UniProt P06731); test: enzyme activity specificity test, CEA-coated plate; pH 5.0 eluate ultraconcentrate 1:10, dilution 1:16
[19] = molecular target: CEA (carcino-embryonic antigen) (UniProt P06731); test: enzyme activity specificity test, CEA-coated plate; void volume of affinity column 1:1, dilution 1:16
[20] = molecular target: CEA (carcino-embryonic antigen) (UniProt P06731); test: enzyme activity specificity test, CEA-coated plate; pH 5.0 eluate ultraconcentrate 1:10, dilution 1:4
[21] = molecular target: CEA (carcino-embryonic antigen) (UniProt P06731); test: enzyme activity specificity test, CEA-coated plate; disrupted cell suspension 1:3, dilution 1:32
[22] = molecular target: CEA (carcino-embryonic antigen) (UniProt P06731); test: enzyme activity specificity test, CEA-coated plate; pH 5.0 eluate ultrafiltrate 1:1, dilution 1:8
[23] = molecular target: CEA (carcino-embryonic antigen) (UniProt P06731); test: enzyme activity specificity test, CEA-coated plate; void volume of affinity column 1:1, dilution 1:32
[24] = molecular target: CEA (carcino-embryonic antigen) (UniProt P06731); test: enzyme activity specificity test, CEA-coated plate; pH 5.0 eluate ultrafiltrate 1:1, dilution 1:32
[25] = molecular target: CEA (carcino-embryonic antigen) (UniProt P06731); test: enzyme activity specificity test, CEA-coated plate; void volume of affinity column 1:1, dilution 1:8
[26] = molecular target: CEA (carcino-embryonic antigen) (UniProt P06731); test: enzyme activity specificity test, CEA-coated plate; disrupted cell suspension 1:3, dilution 1:4
[27] = molecular target: CEA (carcino-embryonic antigen) (UniProt P06731); test: enzyme activity specificity test, CEA-coated plate; disrupted cell suspension 1:3, dilution 1:2
[28] = molecular target: CEA (carcino-embryonic antigen) (UniProt P06731); test: enzyme activity specificity test, CEA-coated plate; pH 5.0 eluate 1:3, dilution 1:64
[29] = molecular target: CEA (carcino-embryonic antigen) (UniProt P06731); test: enzyme activity specificity test, CEA-coated plate; pH 5.0 eluate ultrafiltrate 1:1, dilution 1:256
[30] = molecular target: CEA (carcino-embryonic antigen) (UniProt P06731); test: enzyme activity specificity test, CEA-coated plate; pH 5.0 eluate ultrafiltrate 1:1, dilution 1:128
[31] = molecular target: CEA (carcino-embryonic antigen) (UniProt P06731); test: enzyme activity specificity test, CEA-coated plate; pH 5.0 eluate ultraconcentrate 1:10, dilution 1:64
[32] = molecular target: CEA (carcino-embryonic antigen) (UniProt P06731); test: enzyme activity specificity test, CEA-coated plate; void volume of affinity column 1:1, dilution 1:128
[33] = molecular target: CEA (carcino-embryonic antigen) (UniProt P06731); test: enzyme activity specificity test, CEA-coated plate; pH 5.0 eluate 1:3, dilution 1:256
[34] = molecular target: CEA (carcino-embryonic antigen) (UniProt P06731); test: enzyme activity specificity test, CEA-coated plate; void volume of affinity column 1:1, dilution 1:64
[35] = molecular target: CEA (carcino-embryonic antigen) (UniProt P06731); test: enzyme activity specificity test, CEA-coated plate; pH 5.0 eluate ultraconcentrate 1:10, dilution 1:32
[36] = molecular target: CEA (carcino-embryonic antigen) (UniProt P06731); test: enzyme activity specificity test, CEA-coated plate; pH 5.0 eluate ultraconcentrate 1:10, dilution 1:8
[37] = molecular target: CEA (carcino-embryonic antigen) (UniProt P06731); test: enzyme activity specificity test, CEA-coated plate; disrupted cell suspension 1:3, dilution 1:64
[38] = molecular target: CEA (carcino-embryonic antigen) (UniProt P06731); test: enzyme activity specificity test, CEA-coated plate; pH 5.0 eluate 1:3, dilution 1:16
[39] = molecular target: CEA (carcino-embryonic antigen) (UniProt P06731); test: enzyme activity specificity test, CEA-coated plate; pH 5.0 eluate ultraconcentrate 1:10, dilution 1:256
[40] = molecular target: CEA (carcino-embryonic antigen) (UniProt P06731); test: enzyme activity specificity test, CEA-coated plate; pH 5.0 eluate ultrafiltrate 1:1, dilution 1:4

UniProt P06731, sequence (P06731 35-685 limits assumed): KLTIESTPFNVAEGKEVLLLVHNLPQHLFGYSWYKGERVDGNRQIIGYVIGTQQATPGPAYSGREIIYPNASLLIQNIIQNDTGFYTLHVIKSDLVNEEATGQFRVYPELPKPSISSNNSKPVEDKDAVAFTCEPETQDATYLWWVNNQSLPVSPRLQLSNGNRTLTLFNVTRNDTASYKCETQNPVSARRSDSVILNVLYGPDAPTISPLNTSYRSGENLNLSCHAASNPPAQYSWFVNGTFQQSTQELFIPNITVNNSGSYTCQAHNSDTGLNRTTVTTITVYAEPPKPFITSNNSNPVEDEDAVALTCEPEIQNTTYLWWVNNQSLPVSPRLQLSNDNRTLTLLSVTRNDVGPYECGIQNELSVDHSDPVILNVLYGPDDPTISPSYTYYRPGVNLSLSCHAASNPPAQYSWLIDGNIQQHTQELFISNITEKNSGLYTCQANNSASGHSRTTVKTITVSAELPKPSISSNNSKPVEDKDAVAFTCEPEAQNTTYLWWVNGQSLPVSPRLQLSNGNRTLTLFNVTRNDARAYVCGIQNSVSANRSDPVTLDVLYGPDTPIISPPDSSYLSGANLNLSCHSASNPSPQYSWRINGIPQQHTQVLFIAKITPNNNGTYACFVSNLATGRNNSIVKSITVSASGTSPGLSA

B1: Fab BW 431/26-E. coli β-glucuronidase fusion protein (protein)
heavy: MEVQLQESGPGLVRPSQTLSLTCTVSGFTISSGYSWHWVRQPPGRGLEWIGYIQYSGITNYNPSLKSRVTMLVDTSKNQFSLRLSSVTAADTAVYYCAREDYDYHWYFDVWGQGSLVTVTVSSASTKGPSVFPLAPCSRSTSGGTAALGCLVKDYFPEPVTVSWNSGALTSGVHTFPAVLQSSGLYSLSSVVTVPSSSLGTQTYTCNVNHKPSNTKVDKRVELGSGSGSMVRPVETPTREIKKLDGLWAFSLDRENCGIDQRWWESALQESRAIAVPGSFNDQFADADIRNYAGNVWYQREVFIPKGWAGQRIVLRFDAVTHYGKVWVNNQEVMEHQGGYTPFEADVTPYVIAGKSVRITVCVNNELNWQTIPPGMVITDENGKKKQSYFHNFFNYAGIHRSVMLYTTPNTWVDDITVVTHVAQDCNHASVDWQVVANGDVSVELRDADQQVVATGQGTSGTLQVVNPHLWQPGEGYLYELCVTAKSQTECDIYPLRVGIRSVAVKGEQFLINHKPFYFTGFGRHEDADLRGKGFDNVLMVHDHALMDWIGANSYRTSHYPYAEEMLDWADEHGIVVIDETAAVGFNLSLGIGFEAGNKPKELYSEEAVNGETQQAHLQAIKELIARDKNHPSVVMWSIANEPDTRPQGAREYFAPLAEATRKLDPTRPITCVNVMFCDAHTDTISDLFDVLCLNRYYGWYVQSGDLETAEKVLEKELLAWQEKLHQPIIITEYGVDTLAGLHSMYTDMWSEEYQCAWLDMYHRVFDRVSAVVGEQVWNFADFATSQGILRVGGNKKGIFTRDRKPKSAAFLLQKRWTGMNFGEKPQQGGKQ
light: MDIQMTQSPSSLSASVGDRVTITCSTSSSVSYMHWYQQKPGKAPKLLIYSTSNLASGVPSRFSGSGSGTDFTFTISSLQPEDIATYYCHQWSSYPTFGQGTKVEIKRTVAAPSVFIFPPSDEQLKSGTASVVCLLNNFYPREAKVQWKVDNALQSGNSQESVTEQDSKDSTYSLSSTLTLSKADYEKHKVYACEVTHQGLSSPVTKSFNRGEC
B1 gave a relative fluorescence units (FU) [1] of 6360 FU, a relative fluorescence units (FU) [2] of 7530 FU and a relative fluorescence units (FU) [3] of 74.7 FU. For the same binder, the relative fluorescence units (FU) [4] was 1650 FU, the relative fluorescence units (FU) [5] was 7780 FU and the relative fluorescence units (FU) [6] was 302 FU. The relative fluorescence units (FU) [7] was 422 FU, the relative fluorescence units (FU) [8] was 7900 FU and the relative fluorescence units (FU) [9] was 52.3 FU. It also gave a relative fluorescence units (FU) [10] of 6550 FU, a relative fluorescence units (FU) [11] of 1020 FU and a relative fluorescence units (FU) [12] of 46.3 FU. It also gave a relative fluorescence units (FU) [13] of 7570 FU, a relative fluorescence units (FU) [14] of 6630 FU and a relative fluorescence units (FU) [15] of 1980 FU. The relative fluorescence units (FU) [16] was 5230 FU, the relative fluorescence units (FU) [17] was 25.8 FU and the relative fluorescence units (FU) [18] was 7150 FU. The relative fluorescence units (FU) [19] was 1480 FU, the relative fluorescence units (FU) [20] was 8110 FU and the relative fluorescence units (FU) [21] was 4560 FU. For the same binder, the relative fluorescence units (FU) [22] was 90.2 FU, the relative fluorescence units (FU) [23] was 525 FU and the relative fluorescence units (FU) [24] was 38.8 FU. For the same binder, the relative fluorescence units (FU) [25] was 3220 FU, the relative fluorescence units (FU) [26] was 8150 FU and the relative fluorescence units (FU) [27] was 8180 FU. It also gave a relative fluorescence units (FU) [28] of 816 FU, a relative fluorescence units (FU) [29] of 19.4 FU and a relative fluorescence units (FU) [30] of 23.5 FU. The relative fluorescence units (FU) [31] was 3620 FU, the relative fluorescence units (FU) [32] was 86.2 FU and the relative fluorescence units (FU) [33] was 114 FU. It also gave a relative fluorescence units (FU) [34] of 214 FU, a relative fluorescence units (FU) [35] of 5800 FU and a relative fluorescence units (FU) [36] of 8040 FU. For the same binder, the relative fluorescence units (FU) [37] was 2510 FU, the relative fluorescence units (FU) [38] was 4240 FU and the relative fluorescence units (FU) [39] was 666 FU. It also gave a relative fluorescence units (FU) [40] of 173 FU.
